Data: doi:10.1101/2020.09.10.291369, “In vivo and in vitro mechanistic characterization of a clinically relevant PolγA mutation”

Target: T1, POLγA WT (UniProt P54099 26-1218)
T1 sequence: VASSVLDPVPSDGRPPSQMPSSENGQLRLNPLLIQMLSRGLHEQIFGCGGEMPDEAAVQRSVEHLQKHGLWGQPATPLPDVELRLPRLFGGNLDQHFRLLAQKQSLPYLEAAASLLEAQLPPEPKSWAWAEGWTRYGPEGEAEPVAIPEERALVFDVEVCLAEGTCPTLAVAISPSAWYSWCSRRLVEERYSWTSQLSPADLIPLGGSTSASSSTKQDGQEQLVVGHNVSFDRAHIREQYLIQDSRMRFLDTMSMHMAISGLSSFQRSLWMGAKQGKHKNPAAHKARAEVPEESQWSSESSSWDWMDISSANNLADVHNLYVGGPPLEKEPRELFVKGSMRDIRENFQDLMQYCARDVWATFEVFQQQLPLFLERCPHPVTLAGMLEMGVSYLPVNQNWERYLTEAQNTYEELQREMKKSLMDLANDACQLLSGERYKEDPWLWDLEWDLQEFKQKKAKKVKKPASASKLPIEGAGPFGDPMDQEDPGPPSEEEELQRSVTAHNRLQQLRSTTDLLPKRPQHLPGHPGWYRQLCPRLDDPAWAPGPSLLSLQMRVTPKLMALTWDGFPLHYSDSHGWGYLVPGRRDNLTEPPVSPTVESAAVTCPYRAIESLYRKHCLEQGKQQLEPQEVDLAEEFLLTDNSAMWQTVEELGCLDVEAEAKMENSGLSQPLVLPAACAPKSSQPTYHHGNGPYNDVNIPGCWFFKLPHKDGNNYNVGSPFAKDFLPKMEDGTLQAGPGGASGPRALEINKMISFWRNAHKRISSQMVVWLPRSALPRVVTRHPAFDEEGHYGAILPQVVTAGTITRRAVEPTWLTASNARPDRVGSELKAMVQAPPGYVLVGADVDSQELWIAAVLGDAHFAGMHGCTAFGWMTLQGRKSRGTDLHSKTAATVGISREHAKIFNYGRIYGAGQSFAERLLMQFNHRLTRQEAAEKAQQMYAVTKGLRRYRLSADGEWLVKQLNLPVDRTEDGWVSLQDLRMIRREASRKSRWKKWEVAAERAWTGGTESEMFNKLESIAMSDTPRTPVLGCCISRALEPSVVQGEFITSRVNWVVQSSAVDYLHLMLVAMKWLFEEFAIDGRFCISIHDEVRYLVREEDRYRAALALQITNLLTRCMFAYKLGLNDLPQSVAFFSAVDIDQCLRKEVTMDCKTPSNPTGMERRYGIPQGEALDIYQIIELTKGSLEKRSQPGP
Assay: EMSA; POLγA alone; 10 mM MgCl2, ddGTP, dCTP, ATP; Kd in Suppl. Fig. 5A, value not in material; EMSA: 10 fmol DNA in 15 µl, 20 mM Tris-HCl pH 7.8, 1 mM DTT, 0.1 mg/ml BSA, 10 mM MgCl2, 10% glycerol, 2 mM ATP, 0.3 mM ddGTP, 3 mM dCTP, RT 10 min; 6% native PAGE 0.5x TBE
Details: protein: recombinant; label: 5'-32P on strand 2 (21-mer); 5' overhang 15 nt on strand 1; 21 bp duplex; primer-template

B1: 36-nt/21-nt primed template (mixed)
DNA 1: TTTTTTTTTTATCCGGGCTCCTCTAGACTCGACCGC
DNA 2: GCGGTCGAGTCTAGAGGAGCC
B1: binds.
